First the molecules themselves.
B1: HDV Ribozyme (parent)
chain: GGCCGGCAUGGUCCCAGCCUCCUCGCUGGCGCCGGCUGGGCAACAUUCCGAGGGGACCGUCCCCUCGGUAAUGGCGAAUGGGACCCA

The variants in the series derive from B1. The series can be described thus: self-cleavage, relative activity (ratio to wild type); higher = more cleavage; co-transcriptional.
C21G C26G: the self-cleavage worked out at 0.0723. To C21G C48G belongs 0.115; to C21G C48A, 0; to U20G C36G, 0.151.

Regarding U20G C36U, the self-cleavage is 0.155. Under C21A G40U stands 0.134. With C21A C26A, the self-cleavage came to 0.0739. In the case of C21A C26G, the self-cleavage was found to be 0.266. For U20C G34A, the self-cleavage amounted to 0.0504. To C21G C57A belongs 0.166. For C21G C57U, the self-cleavage was found to be 0.138. Under C21A G55U stands 0.0554; under C21A G55A, 0.129. To C21G G67C belongs 0.0978; to U20G G68C, 0.166. Take U20G G68U: the self-cleavage amounted to 0.201. To U20G belongs 0.205.

In the case of C21A G67C, the self-cleavage was 0.137. Under C21A G67U stands 0.04; under C21G G31A, 0.18. With C21G A56G, the self-cleavage is 0.0791. Under C21G A56U stands 0.116.

With C21G A51G, the self-cleavage came out at 0.131. Under C21G A51U stands 0.0354. To C21A C86G belongs 0.111; to C21A C86A, 0.0563.

With C21A C86U, the self-cleavage was determined as 0.0308. Under U20G C63A stands 0.214; under U20G C63U, 0.297. As for C21A G50A, the self-cleavage is 0.111. Regarding U20G C75A, the self-cleavage came to 0.0978. Under U20G C75G stands 0; under C21G U23A, 0.0536. To C21G U23G belongs 0.0755; to C21G U23C, 0.0615; to U20C G54A, 0.145.

For the variant C21G G39U, the self-cleavage came to 0.0378. For C21G G39A, the self-cleavage was determined as 0.0563. Under C21G A78G stands 0.135; under C21G A78C, 0.0462; under U20G G53C, 0.262. To U20G A87C belongs 0.282. Consider U20G A87G, for which the self-cleavage stood at 0.282. To U20G G28A belongs 0.0536; to U20G G28U, 0.0831; to U20G G28C, 0. As to U20G G25C, the self-cleavage turned out to be 0. To U20C U23C belongs 0.0723. To U20C U23G belongs 0. Consider C21A C24G, for which the self-cleavage was 0.

As to C21A C24U, the self-cleavage was determined as 0.0739. In the case of C21A C24A, the self-cleavage is 0. U20G C30U: the self-cleavage turned out to be 0.

Consider U20G C30G, for which the self-cleavage was found to be 0.0554.

For the variant C21G G74C, the self-cleavage amounted to 0.104. To C21G C49A belongs 0; to C21G C49U, 0; to C21G C49G, 0. Under C21A C30A stands 0.0373. To C21A C30G belongs 0.0652. Regarding C21A C30U, the self-cleavage is 0.0519. With U20G G55A, the self-cleavage came out at 0.356. As to U20G G55C, the self-cleavage is 0.0978.

For U20G C24G, the self-cleavage amounted to 0.151. To U20G C24U belongs 0; to U20G C24A, 0.17; to C21G G53U, 0.0248. To C21G G53A belongs 0.0511; to U20G C57G, 0.208.

With U20G C57U, the self-cleavage stood at 0.302.

As for U20G C57A, the self-cleavage was determined as 0.111. To U20C G38A belongs 0; to U20G C86G, 0.287. Turning to U20G C86A, the self-cleavage was found to be 0.237. With C21A U47A, the self-cleavage came to 0.0462.

For C21A A45U, the self-cleavage was found to be 0.0923.

As to C21A C58A, the self-cleavage was determined as 0.104.

Consider C21A C58U, for which the self-cleavage was found to be 0.0627. To C21G G34A belongs 0.0386.

Regarding C21A G35A, the self-cleavage is 0.0804. To C21A G35C belongs 0.177; to U20G C66U, 0.148; to U20G G50C, 0.138. To U20G G50U belongs 0.18; to C21A U46C, 0.0536. For the variant C21A G81C, the self-cleavage stood at 0.0923. C21G G52C: the self-cleavage came out at 0.111. As for C21G G52U, the self-cleavage was 0.117. To C21A C84A belongs 0; to U20G G81A, 0.108; to U20G G81U, 0. Under U20C G74A stands 0.125; under C21A C63U, 0.0462; under C21A C63A, 0.0314.

As to C21G C64G, the self-cleavage was found to be 0. To C21A U37A belongs 0. With C21A U37C, the self-cleavage is 0.196. For C21G G68C, the self-cleavage is 0.0554. Under C21G G68A stands 0.0707; under U20G G67A, 0.156; under U20G G67U, 0.467. To U20G U27A belongs 0.266; to U20G U27C, 0; to U20G U27G, 0.332.

Turning to U20G A43U, the self-cleavage turned out to be 0.107. To U20G A43C belongs 0.256.

C21A G29U: the self-cleavage came to 0.

As to U20G G76C, the self-cleavage is 0.35. To U20G G76A belongs 0.214; to U20G G74A, 0.0923. Take C21A G73C: the self-cleavage came to 0.0678. As to U20G U69A, the self-cleavage stood at 0. With U20G U69C, the self-cleavage was found to be 0.185.

Take C21G G50C: the self-cleavage amounted to 0.116. Under C21G G50A stands 0; under C21G G50U, 0.0594; under C21G C58U, 0.0314. Take C21G C58A: the self-cleavage was found to be 0.0396.

With C21G C58G, the self-cleavage is 0. To U20C G67C belongs 0.405; to C21G C85G, 0.219; to C21A G76A, 0.256. Turning to C21A G76U, the self-cleavage was found to be 0.0906. Under C21A G76C stands 0.0997; under C21A C32A, 0.17. Under C21A C32U stands 0.0978; under C21A C57U, 0.192.

Consider C21A C57G, for which the self-cleavage is 0.0811. U20G A78C: the self-cleavage turned out to be 0.249. Under U20G C85U stands 0.0554; under U20G C85A, 0.277; under U20G C85G, 0.158. For U20C G55U, the self-cleavage was 0.199. On to U20G C61G, for which the self-cleavage is 0.0536. As to C21A U69C, the self-cleavage turned out to be 0.0426. To C21A U72C belongs 0.101; to U20C G59C, 0.0898. To U20C G59U belongs 0.128. To U20G C48A belongs 0.0723. As for U20G C48U, the self-cleavage stood at 0.237. Under U20G C48G stands 0.222; under C21A G54U, 0.0773. Under U20G C58A stands 0.266; under U20C U79G, 0.185; under C21A A42C, 0.0437. Turning to U20G U72G, the self-cleavage came to 0.

As to U20G A70C, the self-cleavage came to 0.217.

In the case of U20G A56C, the self-cleavage came out at 0.196.

As to U20G A56G, the self-cleavage amounted to 0.151. To U20G U46G belongs 0; to C21A U79A, 0.125; to C21G G29C, 0.0707. In the case of C21G G29A, the self-cleavage was determined as 0.

Turning to U20C G29C, the self-cleavage worked out at 0.231. Consider C21A A83G, for which the self-cleavage was 0.0519.

With C21A A83C, the self-cleavage was 0.0378. Under C21G G35C stands 0.178. Under U20G A83U stands 0.0554; under U20C G50C, 0.312. Turning to U20C G50U, the self-cleavage is 0.163.

On to C21A C48U, for which the self-cleavage came to 0.0639. With C21A, the self-cleavage came to 0.0856. For the variant C21G, the self-cleavage was 0.0702.

In the case of U20G A42G, the self-cleavage was determined as 0.138. In the case of C21G C61G, the self-cleavage was determined as 0.0386. To C21G C61A belongs 0; to U20C C85U, 0.0475.

The values are drawn from the RNAGym collection of RNA variant scans (doi:10.7554/elife.80360).
